What was measured:
recombinant human TNFα [1] = molecular target: T1, recombinant human TNFα (human, UniProt P01375 77-233); assay: cell-based or functional assay
recombinant human TNFα [2] = molecular target: T1, recombinant human TNFα; assay: 125I-TNFα binding to plate-coated p55-sf2 in presence of varying amounts of mAb in hybridoma supernatant
Protocol: (§1) 50:l of p55-sf2 at 0.5:g/ml in PBS was added to Optiplates to coat the wells during a one-hour incubation at 37° C. Serial dilutions of the eight TNV cell supernatants were prepared in 96-well round-bottom plates using PBS/0.1% BSA as diluent. […] The mixture was preincubated for one hour at RT. The coated Optiplates were washed to remove unbound p55-sf2 and 50:l of the ¹²⁵I-TNFα/cell supernatant mixture was transferred to the Optiplates. After 2 hrs at RT, Optiplates were washed three times with PBS-Tween. 100:l of Microscint-20 was added and the cpm bound determined using the TopCount gamma counter.
A simple binding assay was done to determine whether the eight TNV mAbs contained in hybridoma cell supernatant were capable of blocking TNFα binding to receptor. The concentrations of the TNV mAbs in their respective cell supernatants were first determined by standard ELISA analysis for human IgG.

recombinant human TNFα [3] = molecular target: T1, recombinant human TNFα; assay: competition radioligand assay: mAb in hybridoma supernatant preincubated with 5 ng/ml 125I-TNFα, then binding of TNFα to plate-coated p55-sf2 counted as cpm bound
Protocol: Varying amounts of hybridoma cell supernatants containing known amounts of TNV mAb were preincubated with a fixed concentration (5 ng/ml) of ¹²⁵I-labeled TNFα. […] The amount of TNFα that bound to the p55 receptor in the presence of the mAbs was determined after washing away the unbound material and counting using a gamma counter. Although eight TNV mAb samples were tested in these experiments, for simplicity three of the mAbs that were shown by DNA sequence analyses to be identical to one of the other TNV mAbs (see Section 5.2.2) are not shown here. Each sample was tested in duplicate. The results shown are representative of two independent experiments.
as §1

B1: TNV148 (antibody, human IgG1, V domains shown)
VH: QVQLVESGGGVVQPGRSLRLSCAASGFIFSSYAMHWVRQAPGNGLEWVAFMSYDGSNKKYADSVKGRFTISRDNPKNTLYLQMNSLRAEDTAVYYCARDRGIAAGGNYYYYGMDVWGQGTTVTVSS
VL: EIVLTQSPATLSLSPGERATLSCRASQSVYSYLAWYQQKPGQAPRLLIYDASNRATGIPARFSGSGSGTDFTLTISSLEPEDFAVYYCQQRSNWPPFTFGPGTKVDIKR
notes: also called GenTNV148.26.12; C420A
- neutralizing TNFα bioactivity (potency relative to TNV14) (recombinant human TNFα [1]): 4 fold
- fold better at blocking TNF binding to p55-sf2 (against TNV118 and TNV14) (recombinant human TNFα [2]): ~4 fold
- IC50 (read off the curve) (recombinant human TNFα [3]): ~4 ng/mL

B2: TNV86 (antibody, human IgG1, V domains shown)
VH: QVQLVESGGGVVQPGRSLRLSCAASGFIFSSYAMHWVRQAPGNGLEWVAFMSYDGSNKKYADSVKGRFTISRDNPKNTLYLQMNSLRAEDTAVYYCARDRGIAAGGNYYYYGMDVWGQGTTVTVSS
VL: EIVLTQSPATLSLSPGERATLSCRASQSVYSYLAWYQQKPGQAPRLLIYDASNRATGIPARFSGSGSGTDFTLTISSLEPEDFAVYYCQQRSNWPPFTFGPGTKVDIKR
notes: also called GenTNV86.14.34; C417A
- fold better at blocking TNF binding to p55-sf2 (against TNV118 and TNV14) (recombinant human TNFα [2]): ~4 fold
